Source: the supplement of paper PMC12636428

These sequences were tested on Saccharomyces cerevisiae (assay: transcriptional activation domain activity (GFP:mCherry ratio, weighted mean of sorted bins, harmonized to initial dataset scale) (arbitrary fluorescence ratio units); higher = stronger transcriptional activation). Conditions: beta-estradiol 1 µM; induction time 4 h.
Method in brief: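 Values are activation activity, found as the read-weighted mean of bin median fluorescence, averaged across barcodes and then mapped linearly onto the initial dataset scale. Barcoded protein tiles fused to an estradiol-inducible synthetic transcription factor were integrated at the URA3 locus of GFP-reporter yeast diploids. Cells were induced for 4 hours at 30 °C with 1 uM beta-estradiol in SC, sorted into 8 bins by GFP:mCherry ratio, and barcode-sequenced, with tiles under 50 reads discarded.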

Going from “LCPLFPPCFLVLHHILGFLYPRFFLFVFSLVDCLLYFSLSFLVCVRFCLCLGL” to “LCREVIIGGILGGILVFLVISLFFLIGHFFLFFVVLFLLLFNTTLCSLLVEVL”, the “transcriptional activation domain activity” value falls from 78000 to 18900.

Compared with “LCRLWGAWGLFTFGLGVLLSAINMRMVLFYRVFITVNLTARSNSKIVNFFRKF”, “LCRVQESILQTFGMTGLLCMQRGINFTIYCVLTCTVLHLVAITSPDPDLNRDA” is lower in “transcriptional activation domain activity” value: 51100 for the first, 40200 for the second.

First: LCSWLIPRVLVLLGRKGCEKLMENIKALFDLFFQIIPQYPNFWCWESILLDYL
Second: LCTQLLVKILVFSAYRFSLTVLNLVSYLTIDARMVSIVVLGKSLFPLLVFVLL
The “transcriptional activation domain activity” value of the first is higher: 41800 for the first, 41000 for the second.

First: LCVDVWDGFFLSPLNLVAISFLIFLPFHCWVINAPLSILCLTSIMGFPSFLFF
Second: LCVFDLLVLTTTAFIQSGVYCAFDWTVSTIEVRGVCVLAVLIATIPIVFIAYA
The “transcriptional activation domain activity” value of the first is higher: 70200 for the first, 31400 for the second.

Going from “LCYQRMLLRVLLSFCDWIIKLESASQASKLGESMILARRSVDLLVIAIINVGT” to “LDAVSSFNSSSVKSNFASKVNTQLNLLQHSSSNSNFLDASPYDFNKIFMNNFE”, the “transcriptional activation domain activity” value rises from 40700 to 62000.

First: LDDLKLQPIINRYRNCKGLSPSDLRLSLDQLKCLNHQFSVIILRILFKHCPLY
Second: LDFLDLWTFWPWTFWPWTFWTVGLFGLLALDLLALDFLDLWTFWPWTFWPWTF
The “transcriptional activation domain activity” value of the first is higher: 72900 for the first, 60400 for the second.

First: LDGSVDTSAPLDTGLFNSWMDIFQAFPFPAEGFTPDSFNDNYPIDPNQTFLTI
Second: LDHRVGIEKLYVSLFFLSTALLIIIEQYFPSLKSRGVLNFLWKLLYLPLLRLV
The “transcriptional activation domain activity” value of the first is higher: 141000 for the first, 43000 for the second.

Going from “LDIGHWMSSYNLLRRQSTKRYMIIMDLTRRFNTRTPNLLYLIQWGFVWGVSYY” to “LDKKSGRLIKHSLCFTYKDLELLTRFFKEDHVIHPTIKAYVLAACTVLFHLLL”, the “transcriptional activation domain activity” value rises from 57900 to 62500.

Going from “LDKVADPDYHPAVENSDVEEVMAAWRKTVREEALGVVEAGGGNVPGRGRVEVK” to “LDLEHLFGIDIEQRFQSYVMTQQAWLMPYLARIYYSHISLGVCFLVYIYTFLP”, the “transcriptional activation domain activity” value falls from 48000 to 44100.

Going from “LDRTVEAFRHADALRDVHLYGMVFSYFKMPLWQLTRFSGDIIGLNEYLLLFYN” to “LDSYPNVLTFAVYTYLRLIPEHRHIQLATLQQREIRFVVSMLRQKWNLCAVIG”, the “transcriptional activation domain activity” value falls from 38000 to 30100.

First: LECVRFAIMTHTVDLLQKVLWSQVDHILSRLPSIRTVKFRFFMDSSLWKKAAI
Second: LEDNAAPASAPAAEEKPVEKAPEEKPEKKEEPQKEEPKKEDAKQAAPKSGASQ
The “transcriptional activation domain activity” value of the first is lower: 41900 for the first, 46100 for the second.

First: LEEAEDGGGALADGEIEVRVAATGVTVDDARAAAGLRAGYTVGTECSGTVARV
Second: LEEIHILERLYYKSKNQHHASLFWRKLTEIRRVTTRLLKFNVTETVASIPLAF
The “transcriptional activation domain activity” value of the first is lower: 11500 for the first, 59200 for the second.

Going from “LEEYYWKTLNFTTPMYGADTPGSIFPEGLNVWNVAKLPNILDHMETKVPGVND” to “LEGGRVIQRGRHNVATDVVGCFYDAFCTLLPQMIIVRVTRGKAWDSRVIYPTE”, the “transcriptional activation domain activity” value falls from 88300 to 66400.

First: LEGPPLEKTGSDILQQVCNVLPSFEQSSKIITDFFNTELETNEVSEVLDKTKI
Second: LEHVVLLLYCISAVVLQTRYGSVPIGWIEERPITIGFTMAFSGALRDCLMYAA
The “transcriptional activation domain activity” value of the first is lower: 49900 for the first, 56400 for the second.

Going from “LELNWAIGGGDLKHRMNKLREFLEEGRRVEVLLGPKKRGRKATPEEAQGVVKA” to “LELPDNLDNADFSKLLEFDAKNDEALFNSNELLSHTMDPVNNIDLTHDHSREV”, the “transcriptional activation domain activity” value rises from 34200 to 93000.

Going from “LELQHFLLSFAHFPLLVWVFSWVLVFGFNWFLSIYGVLELFFLFCSHCWIAWS” to “LEMLSYGAGVHHAINILFTDGIFWVWYYDRQGILQSKGVSIFKDLPRFLLLLF”, the “transcriptional activation domain activity” value falls from 63900 to 52200.

Going from “LENTNNNGSNVNAATNDTSASTNNINNNNAICQSASLLNDPLETLDFTKCIFA” to “LEQHPKDRVKFSTPELVPLDLKNPELDSSFDLNMNLDLNLNLDSNFNIALNRS”, the “transcriptional activation domain activity” value rises from 46900 to 97100.

Going from “LESTHSLLALLNFIAFLCDGRFRTIADRLLNVRLIPSRRLVKRDVSYEFMNRQ” to “LETGSFQNYYQKMDAENADRVYSKGVKLIASGTLPSGIFNREELFEEDSFYKY”, the “transcriptional activation domain activity” value rises from 46300 to 68400.

Going from “LEVTQRGITPANTDYNSNPIDKCLVSDSFNESTTNLLRSLLHCLRILALTYHA” to “LFALAMLLLFCFIGLLVSGLHFGHRVYSDDCLGQSWIMFSSILGFLYIGLHVQ”, the “transcriptional activation domain activity” value falls from 36600 to 32600.

Going from “LFASMIPSMRDLIVIVLTLPNHATVIELQHYALEIAEQLTRFWFLRAENPLYR” to “LFATLLKLRVDQLLIMMDPTDLIRSILLSNENHQVLSALDFCWTLMHSVFPLL”, the “transcriptional activation domain activity” value rises from 62600 to 78100.

Going from “LFCALMPIRFYTYFKQSFQYYLADLCYYVNLLLLIFLWVLPTSCSLFISVFSL” to “LFCFLHYNLLPLPLLLYHLLLAHHILLQLNLDPFLPLLPLLPFLPLLFLLCHL”, the “transcriptional activation domain activity” value falls from 78400 to 36000.

Going from “LFCLPDTAACGAMHAWRSWATSFLLFSFFAAICGQFFSLLFSYLLLFLCYWVI” to “LFEIDQRLGLLVPRNGINTSLVILKVIAKLLEKASIYNHFTLGIVWLRKSILV”, the “transcriptional activation domain activity” value rises from 42900 to 49900.

Going from “LFFHILFPFFFFFQFLFSLFFFSFFFHSFFFLYFLFFPGGFFFQFCCFFFPSF” to “LFFIAVSQLGFVCSYLVFISGNLVNVVDVLSSCAAHLDQKYYIWIPLILVLPL”, the “transcriptional activation domain activity” value rises from 44800 to 59900.

Going from “LFFLLLPLLLHVIRIKSNMASSWVMVPLDFQPRHLIPLVENSHCLRNLQIFWL” to “LFFLSFFLGLFLFFFSLSLLLVPSSFFFLVFCLFLSFFFILSFFPRFLFFFFF”, the “transcriptional activation domain activity” value falls from 71300 to 39700.

First: LFFLSFLFFPFLSFLSFLFLFSFLFFPSFLFFPSLFLFLFSSPFHPIPFLFSS
Second: LFFSSFLYFSLSLGAPGNYFFDVTFFFIPYPPLCIASYSLGFFFFFSFFFFFS
The “transcriptional activation domain activity” value of the first is lower: 57800 for the first, 70900 for the second.

First: LFFYFFIFLFFYFFILLFYYFIILLFYYLFFFFATVLILILLFFFFFFTYQRT
Second: LFGCVVSNVNGSSYLGLVYVIFMLYEGGLLLAMIKWRISTWIIYYICAFCLSL
The “transcriptional activation domain activity” value of the first is lower: 47600 for the first, 59600 for the second.

Compared with “LFGLFGPLDLWTFWTFGLFGLFGLFGLFGLFGLGLFGLLDFLDFWPWTFWPWI”, “LFGPLDFLDFLDFLDFLDFLDFLDFLDFLDLWTFWPWTFWTVGLFGLLDFLTF” is lower in “transcriptional activation domain activity” value: 57700 for the first, 46300 for the second.

Compared with “LFHSVVSIYRLLFFFSVDHSAGVRFFFCFLFLPSLIFCIAFPISIISGFLVFF”, “LFHSYFSFLLLFFFFFFFYFLPFFFFLPSLLPHFLLFSFYFPFISPFLSTSFS” is higher in “transcriptional activation domain activity” value: 49600 for the first, 58800 for the second.

First: LFHVDLDKMYLMMITLCITWIHACLNVYQIHLLSLLNQWNVISSCLGLLVIVL
Second: LFICRYTSDGQFIGNQNGCYNLVPVYDWIKRCVISIFVVFFIAFLPLFLQELC
The “transcriptional activation domain activity” value of the first is lower: 41900 for the first, 56900 for the second.

First: LFINRLMWLVRSYLTTFFCKSCPGLAKKLIKYVTIQQLPPDVSWDPHFKPRYN
Second: LFLAGILRWGSRIVLVLFLLLLFRLSLLFCLGHLFFAYSLSTLGILLLLMIFF
The “transcriptional activation domain activity” value of the first is higher: 67600 for the first, 31600 for the second.

Going from “LFLFFLFVFCAYPFWLVRCFLLALLLSLKDLVQIFLFLITTLCCDISEMWSFV” to “LFLFIFLVAESYLGFSCWVLYSNVPLYAHVADLAGTKKPFVLPVPFMNVINGG”, the “transcriptional activation domain activity” value rises from 42800 to 48000.

First: LFLFLCLFSPPINNPPFSSLIGEFLPLILSSWFYSFLISVWWNRWEKAFSWWL
Second: LFLFLFLIFFSFLKCTFTYIFVPRFRFSLFSHSGPAVSLVYILGLLGYWGVNV
The “transcriptional activation domain activity” value of the first is lower: 33800 for the first, 55100 for the second.

Going from “LFLFYACVNMIFWRVFMRISYSCPAHLKFFLTVEKWTELVKMTADAIDWLDAH” to “LFLKIYMLNPLHMTRFADLLYQGAILNRVFQPYESHLQYLLQWMCDYNLYGCA”, the “transcriptional activation domain activity” value rises from 47800 to 65100.

Compared with “LFLLFTFPLLGIFDTCFLTSMLFMALCFLFILLLETSFFFFFSLHPNFISWPY”, “LFLLLMFQGLDIFTPGIRVLHFRICLLLLLLIILLAVPLLFSYIHLTAFTIFY” is lower in “transcriptional activation domain activity” value: 62600 for the first, 59100 for the second.

Going from “LFLMVAPYPSLLIVLVNHYLRTLDKPIAFVIHFLVIFTLKFLAFISLIVCVAR” to “LFLMVWYLLMFSFDKKAIEHAWGLMGLLSKLAQSLSLRKFVHSEILAHHLIGS”, the “transcriptional activation domain activity” value rises from 75600 to 80300.

First: LFLSLSSACPSFFPLLPFPFLLAFLITFLAPFPSFLSLLVPHSVPIPLSLPTS
Second: LFPFLFFFFFFLFFSFFLSFFPSSCFLLFSPFFSLVFPFFSLVFFSSFLFFSF
The “transcriptional activation domain activity” value of the first is higher: 49800 for the first, 26800 for the second.

Compared with “LFRDDEFWGIFASDVGLLVMMGWYGFKTLLWTYILPLMWVNHWIVMITYLHHT”, “LFSCCCLLRTLGRFLLFIIFFPSLSTCSFFYFLVLFLFSFQTYFLLYLYLLSI” is lower in “transcriptional activation domain activity” value: 55100 for the first, 43800 for the second.

Compared with “LFSDTSFTIVFSNNVSFTYISFDKKVFFCIFFFLLVYFCQTFSFFLLFFLFFL”, “LFSFLFPLLLFFSHSFFFYPFLCPLLLPPSLSFYLPLSLSSLSPIPCICFFSD” is higher in “transcriptional activation domain activity” value: 44400 for the first, 63200 for the second.

Going from “LFSFSVAYRYFYFFWYVVLERQIRIFRWIAVSIFVWTLVIGFSLYQGLTKQYI” to “LFSLCFSEICTLFLLLMCQGIDLLDPGVRLINWKVSLWLLLATILVFIPLSYS”, the “transcriptional activation domain activity” value rises from 31800 to 43900.

Going from “LFSPFPPSISFPLSSHSSLPPLFPPLFPPLFPPFLPSLCFPLFPSLPFPPLPL” to “LFSQLFFPREQAKGVLGWLVWILYMLEKVLFSFSKRRGFFIVCQLEFCVLILT”, the “transcriptional activation domain activity” value rises from 19500 to 40300.

Going from “LFTFRLLRICGPFVARLPSAERLLGWSTLASILGLWWNPRFAQVFRGFTRHIS” to “LFTHLCLNPQLLRSISSVIFLPRITAPIHVYLYSILIYLQFKMLLLYTLFHIM”, the “transcriptional activation domain activity” value rises from 61800 to 77200.

With “LFTSIYYIIILSRSCLFFLFSLPLFQDALFLFVDSVQLYMWGILLFILSSLFF” the “transcriptional activation domain activity” value was 42900.
